Consider one substance from patent EP0702725B1.

The target of experiment [1] is flow-through fraction from 110BH3-Sepharose of the culture supernatant of anti-CD3-stimulated AC5 cells. The experiment in a line: ELISA on wells coated with the flow-through fraction from 110BH3-Sepharose; biotinylated 388F1, amplification system. (In an ELISA, binding on a coated surface is turned into a signal by an enzyme label.)
Experiment [2] concerns the target PLA2-binding GIF (antigen-binding GIF) from anti-CD3-stimulated human T-cell hybridoma AC5 (human).
Experiment [3] has as its target bovine serum albumin (BSA) (bovine) (UniProt P02769). In words: same ELISA, control wells.
Sequence of UniProt P02769 (P02769 25-607 limits assumed): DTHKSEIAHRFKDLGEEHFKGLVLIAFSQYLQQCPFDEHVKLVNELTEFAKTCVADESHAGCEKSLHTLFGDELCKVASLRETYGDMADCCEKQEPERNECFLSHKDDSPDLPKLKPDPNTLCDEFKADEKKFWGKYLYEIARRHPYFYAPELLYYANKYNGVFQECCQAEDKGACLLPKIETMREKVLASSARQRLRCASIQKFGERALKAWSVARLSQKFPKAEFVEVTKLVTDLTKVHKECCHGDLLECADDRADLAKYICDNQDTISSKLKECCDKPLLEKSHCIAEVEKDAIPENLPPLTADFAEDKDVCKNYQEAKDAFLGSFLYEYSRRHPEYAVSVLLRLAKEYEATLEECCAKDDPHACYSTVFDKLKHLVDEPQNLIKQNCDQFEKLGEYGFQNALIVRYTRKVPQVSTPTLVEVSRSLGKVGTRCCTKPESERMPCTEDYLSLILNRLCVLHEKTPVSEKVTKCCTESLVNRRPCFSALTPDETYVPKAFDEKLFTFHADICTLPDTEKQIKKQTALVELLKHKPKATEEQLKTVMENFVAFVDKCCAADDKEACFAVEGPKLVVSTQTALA
Experiment [4] addresses recombinant human GIF secreted by COS-1 cells co-transfected with SRα-hcGIF and SRα-hfurin (human). In words: absorption on 388F1-Sepharose; titration of GIF bioactivity in the fractions.
The target is the same in experiment [5]. In words: absorption on 388F1-Sepharose, acid elution; 12H5 GIF bioassay.

Bounds are passed on as bounds.

In the case of “monoclonal anti-human GIF antibody 388F1 (ATCC HB 10472)”, the ELISA signal (absorption at 490 nm) (absorbance 490 nm) in experiment [1] stood at 0.36; in experiment [2], 0.86. Also, the ELISA control (nonspecific binding to BSA-coated wells, OD 410) in experiment [3] stood at 0.1 OD 410. Also, the GIF activity of the flow-through relative to the eluate fraction in experiment [4] was less than 0.1 fold. In addition, the GIF activity recovered in the acid eluate fraction in experiment [5] was greater than 75%.
